Data published in the supplement of paper PMC11246515.
± gives the standard deviation of the averaged measurements.

Test: total protein half-life in vivo (active degradation + dilution); higher = more stable protein
[1] = E. coli NCM3722 delta-clpP delta-lon delta-hslV, growth: N-lim chemostat, doubling time 6 h
[2] = E. coli NCM3722 delta-clpP, growth: N-lim chemostat, doubling time 6 h
[3] = E. coli NCM3722 delta-hslV, growth: N-lim chemostat, doubling time 6 h
[4] = E. coli NCM3722 delta-lon, growth: N-lim chemostat, doubling time 6 h
[5] = E. coli NCM3722 delta-smpB, growth: N-lim chemostat, doubling time 6 h
[6] = wild type E. coli NCM3722, growth: C-lim chemostat, doubling time 3 h
[7] = wild type E. coli NCM3722, growth: C-lim chemostat, doubling time 6 h
[8] = wild type E. coli NCM3722, growth: C-lim chemostat, doubling time 12 h
[9] = wild type E. coli NCM3722, growth: N-lim chemostat, doubling time 6 h
[10] = wild type E. coli NCM3722, growth: N-lim chemostat, doubling time 12 h
[11] = wild type E. coli NCM3722, growth: P-lim chemostat, doubling time 6 h
[12] = wild type E. coli NCM3722, growth: P-lim chemostat, doubling time 12 h

Row | Sequence | total protein half-life in vivo [1] [h] | total protein half-life in vivo [2] [h] | total protein half-life in vivo [3] [h] | total protein half-life in vivo [4] [h] | total protein half-life in vivo [5] [h] | total protein half-life in vivo [6] [h] | total protein half-life in vivo [7] [h] | total protein half-life in vivo [8] [h] | total protein half-life in vivo [9] [h] | total protein half-life in vivo [10] [h] | total protein half-life in vivo [11] [h] | total protein half-life in vivo [12] [h]
1 | MQNRLTIKDIARLSGVGKSTVSRVLNNESGVSQLTRERVEAVMNQHGFSPSRSARAMRGQSDKVVAIIVTRLDSLSENLAVQTMLPAFYEQGYDPIMMESQFSPQLVAEHLGVLKRRNIDGVVLFGFTGITEEMLAHWQSSLVLLARDAKGFASVCYDDEGAIKILMQRLYDQGHRNISYLGVPHSDVTTGKRRHEAYLAFCKAHKLHPVAALPGLAMKQGYENVAKVITPETTALLCATDTLALGASKYLQEQRIDTLQLASVGNTPLMKFLHPEIVTVDPGYAEAGRQAACQLIAQVTGRSEPQQIIIPATLS | 5.44 ± 0.36 | 5.57 | 5.41 ± 1 | 5.53 ± 0.32 | 4.96 ± 0.47 | 2.888 ± 0.0064 | 5.6 ± 0.49 | 12.4 ± 2.4 | 5.0404 ± 0.0037 | 10.5 ± 1.1 | 4.72 ± 0.12 | 10.2 ± 1.8
2 | MTARYIAIDWGSTNLRAWLYQGDHCLESRQSEAGVTRLNGKSPAAVLAEVTTDWREEKTPVVMAGMVGSNVGWKVAPYLSVPACFSSIGEQLTSVGDNIWIIPGLCVSHDDNHNVMRGEETQLIGARALAPSSLYVMPGTHCKWVQADSQQINDFRTVMTGELHHLLLNHSLIGAGLPPQENSADAFTAGLERGLNTPAILPQLFEVRASHVLGTLPREQVSEFLSGLLIGAEVASMRDYVAHQHAITLVAGTSLTARYQQAFQAMGCDVTAVAGDTAFQAGIRSIAHAVAN | – | – | – | – | – | 3.12 ± 0.4 | – | – | – | – | 4.75 | 7.85
3 | MKEKTIIIVGGGQAAAMAAASLRQQGFTGELHLFSDERHLPYERPPLSKSMLLEDSPQLQQVLPANWWQENNVHLHSGVTIKTLGRDTRELVLTNGESWHWDQLFIATGAAARPLPLLDALGERCFTLRHAGDAARLREVLQPERSVVIIGAGTIGLELAASATQRRCKVTVIELAATVMGRNAPPPVQRYLLQRHQQAGVRILLNNAIEHVVDGEKVELTLQSGETLQADVVIYGIGISANEQLAREANLDTANGIVIDEACRTCDPAIFAGGDVAITRLDNGALHRCESWENANNQAQIAAAAMLGLPLPLLPPPWFWSDQYSDNLQFIGDMRGDDWLCRGNPETQKAIWFNLQNGVLIGAVTLNQGREIRPIRKWIQSGKTFDAKLLIDENIALKSL | 5.74 ± 1.6 | 1.04 | – | – | – | 3.07 | 2.51 ± 0.54 | 2.78 ± 0.14 | – | 1.3 | 1.03 | 2.31 ± 0.41
4 | MKMNKSLIVLCLSAGLLASAPGISLADVNYVPQNTSDAPAIPSAALQQLTWTPVDQSKTQTTQLATGGQQLNVPGISGPVAAYSVPANIGELTLTLTSEVNKQTSVFAPNVLILDQNMTPSAFFPSSYFTYQEPGVMSADRLEGVMRLTPALGQQKLYVLVFTTEKDLQQTTQLLDPAKAYAKGVGNSIPDIPDPVARHTTDGLLKLKVKTNSSSSVLVGPLFGSSAPAPVTVGNTAAPAVAAPAPAPVKKSEPMLNDTESYFNTAIKNAVAKGDVDKALKLLDEAERLGSTSARSTFISSVKGKG | 5.04 ± 2.7 | 3.08 | 6.28 | 3.75 ± 0.98 | 2.82 ± 0.1 | 2.84 ± 0.031 | 4.94 ± 0.13 | 10.5 ± 1.6 | 3.93 ± 0.67 | 7.51 ± 0.25 | 4.18 | 6.149 ± 0.0079
5 | MSSNFRHQLLSLSLLVGIAAPWAAFAQAPISSVGSGSVEDRVTQLERISNAHSQLLTQLQQQLSDNQSDIDSLRGQIQENQYQLNQVVERQKQILLQIDSLSSGGAAAQSTSGDQSGAAASTTPTADAGTANAGAPVKSGNANTDYNAAIALVQDKSRQDDAMVAFQNFIKNYPDSTYLPNANYWLGQLNYNKGKKDDAAYYFASVVKNYPKSPKAADAMFKVGVIMQDKGDTAKAKAVYQQVISKYPGTDGAKQAQKRLNAM | 5.65 ± 0.36 | – | 5.26 ± 0.17 | 5.96 ± 0.72 | 5.27 ± 1.5 | – | 6.4 ± 1 | 8.8 ± 1.9 | 5.61 ± 0.1 | 11.3 ± 0.16 | 5.31 ± 1.9 | 11.6 ± 0.52
6 | MSLTLTLTGTGGAQGVPAWGCECAACARARRSPQYRRQPCSGVVKFNDAITLIDAGLHDLADRWSPGSFQQFLLTHYHMDHVQGLFPLRWGVGDPIPVYGPPDEQGCDDLFKHPGLLDFSHTVEPFVVFDLQGLQVTPLPLNHSKLTFGYLLETAHSRVAWLSDTAGLPEKTLKFLRNNQPQVMVMDCSHPPRADAPRNHCDLNTVLALNQVIRSPRVILTHISHQFDAWLMENALPSGFEVGFDGMEIGVA | 6.78 | 4.09 ± 0.048 | 4.36 ± 0.11 | 4.56 ± 0.17 | 4.8 | 2.37 | 4.07 | 9.33 ± 0.34 | 4.3 | 7.1 | 4.41 | 8.54 ± 2.5
7 | MRVTDFSFELPESLIAHYPMPERSSCRLLSLDGPTGALTHGTFTDLLDKLNPGDLLVFNNTRVIPARLFGRKASGGKIEVLVERMLDDKRILAHIRASKAPKPGAELLLGDDESINATMTARHGALFEVEFNDERSVLDILNSIGHMPLPPYIDRPDEDADRELYQTVYSEKPGAVAAPTAGLHFDEPLLEKLRAKGVEMAFVTLHVGAGTFQPVRVDTIEDHIMHSEYAEVPQDVVDAVLAAKARGNRVIAVGTTSVRSLESAAQAAKNDLIEPFFDDTQIFIYPGFQYKVVDALVTNFHLPESTLIMLVSAFAGYQHTMNAYKAAVEEKYRFFSYGDAMFITYNPQAINERVGE [P0A7F9] | 4.09 ± 0.78 | 3.64 ± 0.2 | 4.44 ± 1.4 | 4.49 ± 0.24 | 3.41 ± 0.096 | 2.85 ± 0.04 | 4.82 ± 0.32 | 7.45 ± 0.19 | 3.66 ± 0.14 | 5.03 ± 0.34 | 5.46 ± 0.24 | 9.48 ± 0.17
8 | MARRILVVEDEAPIREMVCFVLEQNGFQPVEAEDYDSAVNQLNEPWPDLILLDWMLPGGSGIQFIKHLKRESMTRDIPVVMLTARGEEEDRVRGLETGADDYITKPFSPKELVARIKAVMRRISPMAVEEVIEMQGLSLDPTSHRVMAGEEPLEMGPTEFKLLHFFMTHPERVYSREQLLNHVWGTNVYVEDRTVDVHIRRLRKALEPGGHDRMVQTVRGTGYRFSTRF [P0AFJ5] | – | 4.76 ± 0.81 | 3.79 ± 1.1 | 5.36 ± 0.14 | 4.52 ± 0.53 | 2.93 ± 0.28 | 5.33 ± 0.14 | 8.01 ± 1.2 | 4.51 ± 0.3 | 8.09 | 6.11 ± 1 | 11.3 ± 0.5
